The RNAGym collection of RNA variant scans (doi:10.1073/pnas.2313332121)
This sample holds only a part of the variants without activity.

B1: TPR 5TU (parent)
chain: GGAUCUUCUCGAUCUAACAAAAAAGACAAAUCUGCCACAAAGCUUGAGAGCAUCUUCGGAUGCAGAGGCGGCAGCCUUCGGUGGCGCGAUAGCGCCAACGUUCUCAACUAUGACACGCAAAACGCGUGCUCCGUUGAAUGGAGUUUAUCAUG

Variants of: B1
Assay: polymerase ribozyme fitness, log enrichment relative to wild type (log ratio); higher = more active; in vitro selection for triplet polymerase activity
Outline: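 PCR was used to build mutant libraries for each subunit of a heterodimeric triplet polymerase ribozyme, which were then transcribed. A single in vitro selection round, in triplicate, used a frozen incubation at −7 °C and recovered extended constructs by gel excision, streptavidin beads and RT-PCR. Fitness is the logarithm of genotype enrichment relative to wild-type enrichment, averaged over replicates with inverse-variance weights. The logarithm is base 2, and after Illumina sequencing only genotypes with ≥10 input reads and ≥1 read per output were kept.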

Question: For C96U C105U, which “polymerase ribozyme fitness (log ratio)” value is on record?
Answer: The value was 0.67.

Question: For U90G G126U A147U, which “polymerase ribozyme fitness (log ratio)” value is on record?
Answer: The value was -3.95.

Question: For U4A C38U A40U G42U A73G U82C G94U A107G, which “polymerase ribozyme fitness (log ratio)” value is on record?
Answer: The value was at most -4.2.

Question: With C57U C114G as the variant, how does the “polymerase ribozyme fitness (log ratio)” value read?
Answer: Its value is -2.73.

Question: Which “polymerase ribozyme fitness (log ratio)” value does the source give for A12G C51G A52C C63G here?
Answer: Its value is at most -4.2.

Question: For G71U G141U, which “polymerase ribozyme fitness (log ratio)” value is on record?
Answer: The value was -3.55.

Question: With A22C A115C C129G as the variant, how does the “polymerase ribozyme fitness (log ratio)” value read?
Answer: The value was at most -4.2.

Question: Which “polymerase ribozyme fitness (log ratio)” value does the source give for A20U C57G C93U C123U here?
Answer: The value was -2.57.

Question: Which “polymerase ribozyme fitness (log ratio)” value does the source give for C35G C51U C85U U139G A142U here?
Answer: The value was at most -4.2.

Question: With G48A G136U as the variant, how does the “polymerase ribozyme fitness (log ratio)” value read?
Answer: The value was -2.5.

Question: With G50C A52G C57U C93A as the variant, how does the “polymerase ribozyme fitness (log ratio)” value read?
Answer: The value was at most -4.2.

Question: For C105U A142C, which “polymerase ribozyme fitness (log ratio)” value is on record?
Answer: Its value is -0.229.

Question: With C10G U78G C85G U109C G140U as the variant, how does the “polymerase ribozyme fitness (log ratio)” value read?
Answer: The value was at most -4.2.

Question: With A3U A21C C69A C76A G86A A89G A122G as the variant, how does the “polymerase ribozyme fitness (log ratio)” value read?
Answer: Its value is at most -4.2.

Question: For C87G G152U, which “polymerase ribozyme fitness (log ratio)” value is on record?
Answer: The value was -3.57.

Question: Which “polymerase ribozyme fitness (log ratio)” value does the source give for A16G A41C U55G A142C here?
Answer: The value was -3.52.

Question: For A20G A22U C87U, which “polymerase ribozyme fitness (log ratio)” value is on record?
Answer: The value was -2.33.

Question: Which “polymerase ribozyme fitness (log ratio)” value does the source give for A73C G94A C95U U102C G126C G141U here?
Answer: The value was at most -4.2.

Question: For U55A C57U C87G C125A, which “polymerase ribozyme fitness (log ratio)” value is on record?
Answer: The value was at most -4.2.

Question: For A21C C57A C85G U130G, which “polymerase ribozyme fitness (log ratio)” value is on record?
Answer: The value was -4.

Question: With A47U C76U as the variant, how does the “polymerase ribozyme fitness (log ratio)” value read?
Answer: The value was -0.942.

Question: With A17G G34A U56A G59A U78G as the variant, how does the “polymerase ribozyme fitness (log ratio)” value read?
Answer: The value was at most -4.2.

Question: Which “polymerase ribozyme fitness (log ratio)” value does the source give for A19G C35A G42C G68C G92A here?
Answer: Its value is at most -4.2.

Question: Which “polymerase ribozyme fitness (log ratio)” value does the source give for A21G G92C here?
Answer: The value was 0.365.

Question: Which “polymerase ribozyme fitness (log ratio)” value does the source give for A52C C75U A97U U109G C114A here?
Answer: The value was -3.53.

Question: With C14U A29U C54G G83U G84U C105G U151G as the variant, how does the “polymerase ribozyme fitness (log ratio)” value read?
Answer: The value was at most -4.2.

Question: With G58A C87U G92A A150G as the variant, how does the “polymerase ribozyme fitness (log ratio)” value read?
Answer: Its value is -0.884.

Question: For C5A A37U C51U U56A C79A C96G C116G G133C, which “polymerase ribozyme fitness (log ratio)” value is on record?
Answer: Its value is at most -4.2.

Question: For U55A G81A C93U C105A C118U, which “polymerase ribozyme fitness (log ratio)” value is on record?
Answer: The value was -3.74.

Question: Which “polymerase ribozyme fitness (log ratio)” value does the source give for A24U A40C A98U here?
Answer: Its value is 0.235.

Question: Which “polymerase ribozyme fitness (log ratio)” value does the source give for G11U C96G here?
Answer: The value was -1.31.

Question: Which “polymerase ribozyme fitness (log ratio)” value does the source give for C32A A49U G68U C79G C85U U127G here?
Answer: The value was at most -4.2.

Question: Which “polymerase ribozyme fitness (log ratio)” value does the source give for U82G G84U C99U G128C here?
Answer: The value was at most -4.2.

Question: With A19G A28G A60G G86C A107G C118U G141U as the variant, how does the “polymerase ribozyme fitness (log ratio)” value read?
Answer: Its value is at most -4.2.

Question: Which “polymerase ribozyme fitness (log ratio)” value does the source give for U78G C85U G126U here?
Answer: The value was at most -4.2.

Question: Which “polymerase ribozyme fitness (log ratio)” value does the source give for C18G A21G C93U C149A here?
Answer: The value was at most -4.2.

Question: For A49C U61G C99G G124A, which “polymerase ribozyme fitness (log ratio)” value is on record?
Answer: Its value is at most -4.2.

Question: For C69U C87A G141U G143A, which “polymerase ribozyme fitness (log ratio)” value is on record?
Answer: The value was at most -4.2.

Question: Which “polymerase ribozyme fitness (log ratio)” value does the source give for G50U A52C A64C G92C here?
Answer: The value was at most -4.2.

Question: Which “polymerase ribozyme fitness (log ratio)” value does the source give for U55G G133U here?
Answer: Its value is -4.16.

Question: For A23C C32U A64G G81A C87G C95U C96A A97G A138C G141U, which “polymerase ribozyme fitness (log ratio)” value is on record?
Answer: Its value is at most -4.2.

Question: Which “polymerase ribozyme fitness (log ratio)” value does the source give for U6C C129G here?
Answer: The value was -3.13.

Question: With A3U A16C A60G C87A U102G C108G U127A U145G as the variant, how does the “polymerase ribozyme fitness (log ratio)” value read?
Answer: The value was at most -4.2.

Question: Which “polymerase ribozyme fitness (log ratio)” value does the source give for A3U C76U G124C G141C here?
Answer: The value was -3.96.

Question: With G50A C57A C99A as the variant, how does the “polymerase ribozyme fitness (log ratio)” value read?
Answer: Its value is -2.67.

Question: Which “polymerase ribozyme fitness (log ratio)” value does the source give for G67C here?
Answer: Its value is -3.97.

Question: With C54G C87A as the variant, how does the “polymerase ribozyme fitness (log ratio)” value read?
Answer: The value was at most -4.2.

Question: For A30C U53A G84A, which “polymerase ribozyme fitness (log ratio)” value is on record?
Answer: Its value is at most -4.2.

Question: For G58C C96U A98G A121G, which “polymerase ribozyme fitness (log ratio)” value is on record?
Answer: Its value is -0.614.

Question: With C75A G83A A98U as the variant, how does the “polymerase ribozyme fitness (log ratio)” value read?
Answer: Its value is -4.16.

Question: With A91U A115U C118A C131G A138G as the variant, how does the “polymerase ribozyme fitness (log ratio)” value read?
Answer: The value was at most -4.2.

Question: With G88C A97C A110G as the variant, how does the “polymerase ribozyme fitness (log ratio)” value read?
Answer: The value was at most -4.2.

Question: Which “polymerase ribozyme fitness (log ratio)” value does the source give for A24U C27U C51A G92A A113U here?
Answer: Its value is at most -4.2.

Question: For U55A G67A U127A, which “polymerase ribozyme fitness (log ratio)” value is on record?
Answer: The value was at most -4.2.

Question: Which “polymerase ribozyme fitness (log ratio)” value does the source give for C8G C14A A30C C69U C76G A98U U144G here?
Answer: Its value is at most -4.2.

Question: With A22G A52U C85U U109G as the variant, how does the “polymerase ribozyme fitness (log ratio)” value read?
Answer: The value was -3.97.

Question: For U33G C87A A142U, which “polymerase ribozyme fitness (log ratio)” value is on record?
Answer: Its value is at most -4.2.

Question: For A17C A41U U56A C99U A121G A147G, which “polymerase ribozyme fitness (log ratio)” value is on record?
Answer: Its value is -3.04.

Question: For U13C A29U A52C G86C A107C U109A, which “polymerase ribozyme fitness (log ratio)” value is on record?
Answer: Its value is at most -4.2.

Question: For U6C C105G U144C G152A, which “polymerase ribozyme fitness (log ratio)” value is on record?
Answer: The value was -3.94.

Question: With C5G C38A G58U as the variant, how does the “polymerase ribozyme fitness (log ratio)” value read?
Answer: Its value is -1.06.

Question: For G42A C116G A150U, which “polymerase ribozyme fitness (log ratio)” value is on record?
Answer: The value was at most -4.2.

Question: With G83C G152C as the variant, how does the “polymerase ribozyme fitness (log ratio)” value read?
Answer: The value was -3.16.

Question: For G84U U101G G126C, which “polymerase ribozyme fitness (log ratio)” value is on record?
Answer: The value was -1.67.

Question: For A115U A119G A138G, which “polymerase ribozyme fitness (log ratio)” value is on record?
Answer: The value was at most -4.2.

Question: Which “polymerase ribozyme fitness (log ratio)” value does the source give for A21G A24C U31C C69G U148C here?
Answer: Its value is at most -4.2.

Question: With G94C A113G as the variant, how does the “polymerase ribozyme fitness (log ratio)” value read?
Answer: The value was -2.8.

Question: Which “polymerase ribozyme fitness (log ratio)” value does the source give for U13G U61A A89U C96U here?
Answer: The value was -3.58.

Question: Which “polymerase ribozyme fitness (log ratio)” value does the source give for C5U A20C A29G A115C U130G C132U U146C here?
Answer: The value was at most -4.2.

Question: Which “polymerase ribozyme fitness (log ratio)” value does the source give for U6A A22G C125U here?
Answer: Its value is -0.424.

Question: Which “polymerase ribozyme fitness (log ratio)” value does the source give for A107C C118U here?
Answer: Its value is at most -4.2.

Question: For C27A A30U U44A C57A A97G A98U A119C A120G G128A, which “polymerase ribozyme fitness (log ratio)” value is on record?
Answer: Its value is at most -4.2.

Question: Which “polymerase ribozyme fitness (log ratio)” value does the source give for U53C C57G C125U G143A here?
Answer: The value was -3.67.

Question: For A20U U61A, which “polymerase ribozyme fitness (log ratio)” value is on record?
Answer: Its value is -2.43.

Question: With G42U A47C C87A U104G A107G as the variant, how does the “polymerase ribozyme fitness (log ratio)” value read?
Answer: The value was at most -4.2.

Question: For G84U C131G, which “polymerase ribozyme fitness (log ratio)” value is on record?
Answer: Its value is -3.96.

Question: With C96A A120U G140U as the variant, how does the “polymerase ribozyme fitness (log ratio)” value read?
Answer: The value was -3.09.

Question: Which “polymerase ribozyme fitness (log ratio)” value does the source give for A22C U55A A97G G143C here?
Answer: The value was -3.02.

Question: With C5A U148G as the variant, how does the “polymerase ribozyme fitness (log ratio)” value read?
Answer: Its value is -3.62.

Question: Which “polymerase ribozyme fitness (log ratio)” value does the source give for A21C A29G U44G C63U G68U C103U A137G G143U here?
Answer: Its value is at most -4.2.

Question: Which “polymerase ribozyme fitness (log ratio)” value does the source give for C8U A16C U53A C54A G71C G141C U148C C149U here?
Answer: The value was at most -4.2.

Question: For U55A G84A, which “polymerase ribozyme fitness (log ratio)” value is on record?
Answer: Its value is -1.01.

Question: With C57U U151A as the variant, how does the “polymerase ribozyme fitness (log ratio)” value read?
Answer: Its value is -4.18.

Question: With C76A A91U as the variant, how does the “polymerase ribozyme fitness (log ratio)” value read?
Answer: Its value is at most -4.2.
